Measured values taken from PMC2943598 (Nucleic Acids Research, 2010).

Experiments:
[1] = biological target: T1, Alexa fluor 488-labeled M. thermautotrophicus ND-GluRS (Methanothermobacter thermautotrophicus), O26157; assay: fluorescence polarisation; details: remark: other sources report otherwise
T1 chain: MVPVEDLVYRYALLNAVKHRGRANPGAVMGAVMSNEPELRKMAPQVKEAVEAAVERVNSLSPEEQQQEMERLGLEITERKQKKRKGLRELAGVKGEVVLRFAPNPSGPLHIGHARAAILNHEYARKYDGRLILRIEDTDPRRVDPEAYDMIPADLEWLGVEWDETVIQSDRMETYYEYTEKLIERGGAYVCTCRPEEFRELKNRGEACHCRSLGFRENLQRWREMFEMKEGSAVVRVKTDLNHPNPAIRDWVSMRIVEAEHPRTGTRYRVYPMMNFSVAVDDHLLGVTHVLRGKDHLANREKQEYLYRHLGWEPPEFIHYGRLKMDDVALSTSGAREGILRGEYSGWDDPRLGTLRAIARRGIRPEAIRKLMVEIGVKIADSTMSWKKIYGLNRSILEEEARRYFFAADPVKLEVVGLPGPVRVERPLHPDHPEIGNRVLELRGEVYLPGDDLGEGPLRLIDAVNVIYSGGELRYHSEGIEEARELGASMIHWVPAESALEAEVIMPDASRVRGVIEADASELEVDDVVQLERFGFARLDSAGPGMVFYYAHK

[2] = biological target: T2, Methanothermobacter thermautotrophicus non-discriminating glutamyl-tRNA synthetase (Methanothermobacter thermautotrophicus), O26157; assay: nitrocellulose filter-binding competition; details: remark: other sources report otherwise
T2 chain: T1 chain

[3] = biological target: the molecule itself; assay: SEC
[4] = biological target: T3, Methanothermobacter thermautotrophicus glutamyl-tRNA(Gln) amidotransferase GatDE, His6-tagged (Methanothermobacter thermautotrophicus), O26802; assay: SEC; details: remark: other sources report otherwise
T3 chain 1: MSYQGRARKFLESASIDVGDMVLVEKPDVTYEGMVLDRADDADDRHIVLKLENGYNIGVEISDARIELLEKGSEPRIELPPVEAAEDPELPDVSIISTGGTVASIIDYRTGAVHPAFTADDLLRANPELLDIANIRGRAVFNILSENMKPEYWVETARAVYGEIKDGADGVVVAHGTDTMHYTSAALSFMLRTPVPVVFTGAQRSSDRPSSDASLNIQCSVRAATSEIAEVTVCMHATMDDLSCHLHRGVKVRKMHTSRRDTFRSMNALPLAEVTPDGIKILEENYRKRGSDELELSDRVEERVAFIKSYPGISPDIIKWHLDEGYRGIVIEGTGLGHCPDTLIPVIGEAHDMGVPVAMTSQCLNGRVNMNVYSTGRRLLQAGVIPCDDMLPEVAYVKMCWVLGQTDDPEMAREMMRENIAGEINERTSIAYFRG
T3 chain 2: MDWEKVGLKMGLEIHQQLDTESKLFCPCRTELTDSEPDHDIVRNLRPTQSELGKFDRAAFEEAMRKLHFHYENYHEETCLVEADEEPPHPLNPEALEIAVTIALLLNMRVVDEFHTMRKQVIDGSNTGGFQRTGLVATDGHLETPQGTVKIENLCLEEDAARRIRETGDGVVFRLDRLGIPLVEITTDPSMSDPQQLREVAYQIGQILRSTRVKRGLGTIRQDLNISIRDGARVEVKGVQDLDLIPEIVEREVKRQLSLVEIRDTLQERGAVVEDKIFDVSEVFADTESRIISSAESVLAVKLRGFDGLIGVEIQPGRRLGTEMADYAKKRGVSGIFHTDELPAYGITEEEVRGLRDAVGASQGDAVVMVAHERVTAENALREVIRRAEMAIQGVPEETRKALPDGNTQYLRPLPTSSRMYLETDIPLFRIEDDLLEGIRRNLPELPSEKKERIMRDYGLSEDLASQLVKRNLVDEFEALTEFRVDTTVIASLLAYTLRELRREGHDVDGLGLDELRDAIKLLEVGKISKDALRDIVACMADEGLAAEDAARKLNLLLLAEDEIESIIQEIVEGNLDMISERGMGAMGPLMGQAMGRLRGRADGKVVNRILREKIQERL

B1: Methanothermobacter thermautotrophicus glutamyl-tRNA(Gln) amidotransferase GatDE, His6-tagged, O26802 1-435; O26803 1-619 (complex)
chain 1: T3 chain 1
chain 2: T3 chain 2
modifications: here or on the partner: Alexa fluor 488 label (residues not stated)
Kd [1]: 100 nM
Ki [2]: 33 nM

B2: Methanothermobacter thermautotrophicus glutamyl-tRNA(Gln) amidotransferase GatDE, His6-tagged (complex)
chain 1: T3 chain 1
chain 2: T3 chain 2
stoichiometry N [3]: 2

B3: Methanothermobacter thermautotrophicus non-discriminating glutamyl-tRNA synthetase, O26157 1-553 (enzyme)
chain: T1 chain
stoichiometry N (ND-GluRS monomers per GatDE homodimer) [4]: 2
